Measurements taken from publication PMC4613674.

Biological target: MBP–Cas5–Cas7 complex (Methanothermobacter thermautotrophicus) (Methanothermobacter thermautotrophicus ΔH)
Assay: pull-down; MBP–Cas5–Cas7 (20 μg) held on amylose resin, His6–Cas8′ (20 μg) added, final volume 500 μl, 2–4 h at 4°C; 20 mM Tris/HCl pH 8.0, 150 mM NaCl, 1 mM EDTA, 1% Tween; western blots with anti-His6 and anti-MBP; with or without pre-incubation of Cas5–Cas7 with crRNA1

## N-terminal hexahistidine-tagged Mth Cas8′ (natural protein)
  percent of input bound: < 10%
